A protein production outcome set (Wang et al. 2014)

Assay: label from the status in PepcDB records
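Also: failed if final PepcDB status was selected cloned or expressed and not failed if soluble or beyond.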

MFLPKFNPIRSFSPILRAKTLLRYQNRMYLSTEIRKAIEDAIESAPVVLFMKGTPEFPKCGFSRATIGLLGNQGVDPAKFAAYNVLEDPELREGIKEFSEWPTIPQLYVNKEFIGGCDVITSMARSGELADLLEEAQALVPEEEEETKDR
protein production: failed

MFLRTQARFFHATTKKMDFSKMSIVGRIGSEFTEHTSANNNRYLKYSIASQPRRDGQTNWYNITVFNEPQINFLTEYVRKGALVYVEADAANYVFERDDGSKGTTLSLVQKDINLLKNGKKLEDAEGQENAASSE
protein production: failed

MFNKISLEIMKRSALTLMPTVLALAVGMAMPAVQAAINSDASVVGTESQWWNTYKVTLTNNGNQPVELRDASIAFDTNLSLSTPSWSAQGISYPSMSFSSNAQGSVFSNRLTLSFDQGSWVKTQLLPGASIDLTLGVSGVLELSLLQSTIALETDGEVEPGEPEISLELASPVQGAEFIEGQTVAIVANVTATNTTVKTVTFLVDGEQIALLEQAPFQASWTAAGEGAHSIKAIVEDASGLLKEQAVRITVKAEEIDPPVEPEVPVAPVIELTNPRNGQSVFLGKVTTLAANATDENNDLTAVEFLVNGESIGRVTQAPYQLAWTPVALGQYTIEAIAYDAAGHQTQTPMVTVNAKEMGTGNLSCDIKQIYREDGTECMGDDHPRRIIGYYTSWRTGKNGLPAYLAGDLPWEKLTHINYAFASINKSDFSMQVDDSATKMTWENVPGAEMDPSLPYQGHFNLLSKFKKQYPDVKTLISVGGWAETGGFYPMTTDLASCSVNMEGIKAFNKSAVDFIRQYDFDGVDIDYEYPSSMKDSGNPVDFEQSNKCRGQLWDNYMVMMTELRKALDKAGEEDGRRYMLTIASPSSAYLLRGMQDFAMQDVLDYVNIMSYDLHGTWNEFVGPQAALFDDGKDAELAKWGVYTTAEYQGIGYLNQAWTHHFFRGAFKPSQINMGIPYYTRGWQGVSGGDKGLWGRAVEPNQSSCPEGTTVCGWGAEGTDNIWHDVDANGNEIKAGVVPMWHAMNLMHAEKLGIDGMPSYGPAWGMDPNNPKHLIEGKYERVWSQELQTAWLWNDTKKVFLSIEDKDSLKPKLDYIVDNGLGGMMIWEMAGDYSYDAVKREYVIGSDMTSYAHEVFAAAKPMDIRHNDLPQPDSVIDVTVSTTEWPEGDSNYPINPKLVFTNHSNVAIPGGSTIEFLMPTSSGDIVKDWSGAGLKVIESGHTGSNFSVNGEKKLFHKVAVTLRSTETIPAGGEYSVDMVYYTPVSGVANGVRFIVGNETVGLKKDFPTLPAFEGATDGGNGNEGGAGQSCADAGINPNGLKVYPEFPRGDHAAGGDQLIHNGSVWQANWWTNSTPSSADASWKAVCKI
protein production: failed

MFNKKKTIASLIVLSSLASQIALTPISALADTHDTNNIALLQNTNENVPYKYTSTLTFPTLTNQTQEDYKLEIKLALPSGMNYTDLQVSVGGEDITNQVGTTSFDNSTNTVTFKFDKVTSWDSLSKAKVKFDWKTSYSGEGGEAKIDSLVATATATSEDKAGNKSTSTGSLKPKDISAPVVKAEETEITYSPGSDVTEEQFLTDIHASVTDNYDSTISLTSNFTSAVNLAVSGDYSVNVQATDKAGNVSNTLNVTVHVSTPAPVAGANITVNHLDSNGNKIAESDTLTGVVNSNYQSESKKITGYTLETTPTNATGTFTDTPQTVDYIYKKDTVTPTPITVNPVEPVKPVNPVVNKPVTVKPANDNTNPSTSNSVEKTTYSSLPTTGDTDQSKSSTIFGALLLLISAPLLLFKKK
protein production: failed

MFNKKPLADTTARRPSTGAQAKIYSRDNVARYSERARQRRRSHTIRHVALIVVLGVLLSATTAAGLWFATIMGKLGDSNVITDNLRRVLVDTDEAKDPFYVLLLGTDGRPGEDTYRADSIILARIDPTQKQATLISVPRDTKVEYKGETMKINACHTVGGAEAMVEAVNELCGVQISHYAEVSFDGMQALIDSVGGIDINATDDVDDPEHLDIKITAGQQHMDGATALTYARCRYTYADGDYTRMRHQRQVLGALANQILNNFDATKIFGLVNSLSDMLVTDMSVQDIVATVNAMRGMDVDGIYSANLPSYADDSTMIDGVSYVFVYEDELKEMMERVDAGKDPKGPNTMGLSDGSSSTIGDLNNNTSDDYANGTATSSVSSDDSDDSSDSSDSDYYEEPTGDGNGYEANY
protein production: failed

MFNKVAFMNIPMMDLIMIVIAIIITIGSFLFIAYLIFKYSKIKKQVKIIREVKINLPKMLKSNMIKNSFLIISLLCFYFGMLYIAGELVISHILFIAICWIVVFLYIIIKGETRGYICEEGLLVSGVLYSWKEFKDVKIEDNYIILTTPIHKIVIKKEKGVENILKNYLKRN
protein production: failed

MFNKVIMVGRLTRNVELKYLPSGSAAATIGLATSRRFKKQDGTLGEEVCFIDARLFGRTAEIANQYLSKGSSVLIEGRLTYESWMDQTGKKNSRHTITADSLQFMDKKSDNPQANAMQDSIMHENSNNAYPANHNAPSQDPFNQAYAQNAYAKENLQAQPSKYQNSVPEINIDEEEIPF
protein production: failed

MFNRRIALICLIVATLSACGGKTKEELYAEAVKELDKGNANGAIVLLKNAVEKDQNYFDARYKLAKAYMTVGKFEQAEKEFQKALRQNPSNPEIRLDLAKLYNSINKPDESIAEAKAYLSARAGSADALEVIGTSYGQKKMFDEAEKYLKESLQAEPARASAMLQLAKVYLATKREQEGMGLLNEIVRKDPKNTKAYYLAAFYEGYRGNSEKALEYYQKIMQADPDDANAAFRIGMMHISKGEVDKAERLADDLIRKASKRPEGHQLKGIALYTRKNYDQAITELQGVVKNYQNPGAYYYLGLSYYQRNDLESALSQFRKVIDLNPKHLQARLMSATVLLQQKRTDDAITEAKRVIELDDKNAFAHNVLGSAYIAKGMTDEAVRELNRAIELEPKLVGAHMKKGIVNLARGKRAEGEEELETAVKVAPDVLNSRYLLASYYMRLNKQARAIEVLRAGLRGGKQDAPLYNTMAAAAFADKREKDGILYLQKAREVDQAYLPASFNLASYYISKKDNGRAAGLFNEILKRDPANLKALIGLGAISESEGKAQEAVAYYTKAKATKDPVGYLSLASYYIRKKEAPKALALANEGLKGAPNNAALLELKGGLLAADKKYAEALKVYDELEKVAPTRAIPLKIGALVVTKNIPKAVEQAQKVVAANPKSAAGHLVIASIYESQKDYDRAISAVRSGIAVEPGNLRASMALGGIYEKKRDFARAIAAYDDILRKNPKNIPALFAKGAAFDQSGKKKEAAGIYRAVLKIAPDFVPALNNLAYLAAEGYGNKSEALSLASRANKLQPNNAGVMDTYGYALLINGKRTASVRVLEKAVSLLPNNPAVHYHLAMAYRDMGDRAKASVSVQKSLQYGEFPESAAARKLLAELKR
protein production: failed

MFPYKIVDDVVILMPNKELNIENAHLFKKWVFDEFLNKGYNKIFLVLSDVESIDSFSLGVIVNILKSISSSGGFFALVSPNEKVERVLSLTNLDRIVKIYDTISEAMEEVRRK
protein production: not failed

MFQIGEHNMILIYKLTLTKLTEDELKKDFATIPSWATHLDLSNNRLGETSNEELIRVFAKIPGWISHIKLRFNNLGQKNGKDLAKAFAKIPISVTTLDLGSNQLGKKSGEELANAFAGIPTSVTRLILSQNELYKRTGGELATAFAKIPSSVTHLVLVNNGLGEKNGKELATAFANIPSSVTTLDLALNDLSKIKSTELAVIFTKIPTSVTQLDLSHNNLNKKSGKNLAKIFANIPTSVTNLNLSCNELGKKSGKGLAAAFAKIPTSVTDLNIEDNDLDNRTGKELAMAFAHIPAFVNTLRLGDNNLGNKSGEELAEIFAKIPLSVTSLDLRYNELGKRNGKELAIAFAKIPSSVTNLNLKFNHLGKITGEELAMAFANIPTNVDSLVLANNELGAKSGEELAKIFSKIPASITSLNMGNDWFAVIEKLSQQKMVLSTITHVVIDYSSAQEHSAKLKLLATVFPNLNKVTFMDIHGNNALAGQNPIEEAKWLKLCGIKNSVPSLLSQALFFVAKNKEHRSIQDYPSLLPKELTDSISSLLKC
protein production: failed

MFQLRKKMTRKQLALLSAGVLTCVVGGSYLIMNHQQQEIVSSVNKVKALTIKEAMEQGKDISLTLAGEVTANNSSKVKIDSSKGEVKEVFVKKGDVVKVGQPLFSYETSQRLTAQSSEFDVQTKANQLQVAKTNAALKWETYNRKVNEINTLKSRYNTAPDESLLEQIRSAEDSVSQALSDAKTADSDVKTAQIELDKANATATTEKGKLEYDTVKSDTAGTIVSLNTDLPNQSKSKKENETFMEIIDKSKMLVKGNISEFDRDKLKIGQKVEVIDRKDNSKKWTGKVTQVGNLKAEEKGQGQGQGGNDQQDNPNQAKFPYVIELDQSDKQPLIGSHTYVNVLNNVPEAGKIVLKETFTMAENGKTYVWKVDKNKVKKQEIKTKPFSKGYVEVTSGLTMQDKIAQPLPGMKDGMEVGSIVKP
protein production: failed

MFRDEDETTPPRAREVERLKKRLYRLKYLAHKYKRAEVVQNALLELSHIATQVSSLEEFYLGVHHHLKQLISADNFFIATLDVNSGAISVPFFADEKDAHPSQLYPEQSLSTLLQQGLTGYVFRTGQTLLCDESKVDELVNAEEIVNLGSPCHLWLGVPIKHEDIVTAVLVVQTYDTNVSYGDIEVELMTFICHHITGVMERLKHQEQLEQAIQQ
protein production: failed

MFRGVAPPPERSSTPLPPTMTTTPEPGAALLLLIVSQLPGIGPSRARALLNRFGATPALLEADYDALRQIPGIGETTARETAERLANPAWRDKAREKGENQLARAERLEASVITILDPAYPPLLKEIYDPPLLLFARGNPEALCVPSLAVVGTRKATAYGKQATEFICREMVNNGYAILSGLAYGIDMMAHRAAVESNGVTIAVLGCGIDRIYTDPAGRLWPRILERGAIVSEEWIGIKPEPGNFPRRNRLIAGLAQGTLIVESDIKGGSMITASYALEQNREVFAIPGSIFSGTSRGTNYLIQQNHAKPVFSAEDILAELNPAQHPALKTHPEASEPFDLNIEESCIVEALQSGAMHIDLIAEKTGLKIDALLVHLFELELKRIIEQEPGQIFRKRTP
protein production: failed

MFRSKRYQMVAYAITGSALWGLSGTVSSILFSRYGMPFSTLVTIRMVFSGLILLAAGRGFVGKKDLPMFLVFAIPGLFGVQILYLATISFSNAPVATLLQFLFFPMVAVYDYITIRSLTVSSLILALIFSVAGIYELTTGFPLGGTALRISLTALILGLATAATAALYTVTSARIVKEYGGLRTVASGMMVGGLVSLPLGSFSGVPYFHGLGQADVIPVLALTIFVIVFGTSMAFYLYINSMRYISPVEAAVSGTFEPVAAAMSSYLLLGIKLSAMQYLGGALIVISILVIVISKNRRG
protein production: failed

MFRSLNSYLIDFTGLVVISVLICLVSAGGSLASGLPFQIPASVLQLNTIFISILIEALPFVLIGVLIAGFIQIFVTEEHIRSLFPKNRFSGVIVSCLLGACFPACECGIVPIVRRLVSKGVPIYAGVGFLLTGPLINPIVVLSTYMAFGNDLRMAVLRVAVGFAAAVIIAFAISMMFRSSQLKTESRQTAAHCAHSGRRSPFSEKLFDMLKHAVDEFFDMGRFLIIGALVAALVQTYLPLKSLFVFGGGMLDSALVMMGLAYFLSLCSEADAFIGASFTNLFPSSSILAFLVYGPMLDLKNTVMMLHAFKPKFVICLSVLITVVVFVCIKVVSLL
protein production: failed

MFRSSRRQAAFDFDLLMPETPARRTARAANPDRDVVDAEFVTIKENRVRQPGNDNRGAARRQMVKPSVTIGALGLAFIGWLDRRLSRLSADAYSALVAGLAIFVFVCSGGLSVVVPETSAVAASVNPLAISHVTITPQEAGGMDILLINGIVENNGGNLEEVPALRADLFAAKGQLVASMVIEPPVKEMQPGFSHGFSAKLRHPGGKTPEIKLSFVEAGASAR
protein production: failed

MFRVTGTLSAASSPAVAAASFSAALRLSITPTLAIASPPHLRWFSKFSRQFLGGRISSLRPRIPSPCPIRLSGFPALKMRASFSSGSSGSSASREILVQHLLVKNNDVELFAELQKKFLDGEEMSDLAAEYSICPSKKDGGILGWVKLGQMVPEFEEAAFKAELNQVVRCRTQFGLHLLQVLSEREPVKDIQVEELHSKMQDPVFMDEAQLIDVREPNEIEIASLPGFKVFPLRQFGTWAPDITSKLNPEKDTFVLCKVGGRSMQVANWLQSQGFKSVYNITGGIQAYSLKVDPSIPTY
protein production: failed
